For experiment [1], the system named is hippocampal neurons from Ntsr1^Venus/Venus mice. Nature of the experiment: Intracellular calcium release (Fluo-4) in hippocampal neurons from Ntsr1^Venus/Venus mice. The class given is cell-based, mouse. As to conditions: 1 μM, maximal calcium response control. The procedure:
To isolate hippocampal neurons, P0 pups were removed from the cage of NTSR1-Venus homozygous knock-in breeding pairs. Pups were decapitated, brains were removed dorsal side up into fresh ice-cold Hank’s balanced salt solution (HBSS; Gibco, Grand Island, NY, USA), meninges were removed, and hippocampi were dissected into Hibernate A (Gibco, Grand Island, NY, USA) on ice. Tissue dissociation was carried out with the Papain Dissociation System according to the manufacturer’s protocol (Worthington Biochemical Corporation, Lakewood, NJ, USA). Neurons were plated on Poly-D-Lysine (Sigma) coated surfaces at 100,000 cells per 12 mm coverslip (NeuVitro, Camas, WA, USA) in a 24-well plate for immunostaining or 50,000 cells per well of an 8 well chamber slide (Ibidi, Grafelfing, Germany) for calcium measurements. Plating media [Neurobasal A (Gibco, Grand Island, NY, USA), 1% FBS (Fisher Scientific), 2% B-27 (Gibco, Grand Island, NY, USA), 0.5 mM GlutaMAX (Gibco, Grand Island, NY, USA), and 1x Penicillin/Streptomycin (Invitrogen, Waltham, MA, USA)] was exchanged 1 h after plating to maintenance media (Neurobasal A, 2% B-27, 0.5 mM GlutaMAX, and 1x Penicillin/Streptomycin). Half of the volume of media was exchanged for fresh media every 3–4 days. On day in vitro (DIV) 3 Cytosine arabinoside hydrochloride (Sigma) was added to media with a final concentration of 0.1 μM to decrease glial cell proliferation.
Hippocampal neurons were grown until DIV 7. Fluo-4 NW Calcium Assay kit (Thermo Fisher) was used according to the manufacturer’s protocol. Briefly, drugs were prepared at 4 μM stock solutions in the assay buffer provided without probenecid. […] Fluorescence was imaged with a 10x objective on an (Olympus, Shinjuku City, Tokyo, Japan) IX73 microscope (Fluo-4 em. 506 nm).
Live imaging settings of Fluo-4 were as follows, 79 ms exposure, 2 s intervals for 90 cycles (180 s). […] First regions of interest (ROI) were automatically determined using the analyze particles plug in. […] Relative fluorescence is defined as F/F0 where F corresponds to the cell fluorescence and F0 to the basal fluorescence.

The subject of experiment [2] is hippocampal neurons from Ntsr1^WT/WT mice. Nature of the experiment: Intracellular calcium release (Fluo-4) in hippocampal neurons from Ntsr1^WT/WT mice. Particulars: 1 μM, maximal calcium response control. It counts as cell-based, mouse.
Another experiment concerns the target T1, NTSR1-Venus (Mus musculus, UniProt O88319).
T1 construct: monitoring endogenous NTSR1-Venus receptor endocytosis could differentiate NTSR1 agonists; endogenous in cells; host or cells: primary hippocampal neurons from homozygous NTSR1-Venus knock-in mice (C57BL/6N background)
Description: Multiphoton imaging of NTSR1-Venus internalization in acute SN/VTA brain slices. It counts as cell-based. As to conditions: 1 μM during slice recovery and imaging, 60 min. The protocol: Male and female Ntsr1^Venus/Venus mice aged 5 weeks were anesthetized, and 250 μm-thick coronal slices containing substantia nigra pars compacta and ventral tegmental area were prepared. Cutting solution contained (in mM): 87 NaCl, 25 NaHCO3, 25 glucose, 75 sucrose, 2.5 KCl, 1.25 NaH2PO4, 0.5 CaCl2, and 7 MgCl2; bubbled with 5% CO2/95%O2; 4°C. Following cutting, slices were incubated in the same solution for 30 min at 33°C. For control experiments, slices were subsequently incubated in the same solution at room temperature until imaging. For antagonist experiments, slices were subsequently incubated in cutting solution with 1 μM SR48962 until imaging. SR48962 was prepared as a 1 mM stock in water.
Imaging solution referred to as aCSF contained (in mM): 125 NaCl, 2.5 KCl, 2 CaCl2, 1 MgCl2, 25 NaHCO3, 1.25 NaH2PO4, 25 glucose; bubbled with 5% CO2/95% O2; 31–34°C, ∼310 mOsm. For antagonist-only experiments, 1 μM SR48962 was added to the imaging solution. For antagonist plus agonist experiments, a baseline image was taken with no NTSR1 agonist or antagonist in the imaging solution, and subsequently, 10 μM PD149163 [prepared from a stock solution in water] was added to the imaging solution. As a precautionary measure, all components that were exposed to antagonist were rinsed first with 70% ethanol and then water. All components that were exposed to agonist were replaced between experiments.
For two-photon laser scanning microscopy (2PLSM), a 2-photon source (Coherent Ultra II, Santa Clara, CA, USA) was tuned to 920 nm for imaging. […] Both epi and transfluorescence were detected with R9110 photomultiplier tubes (Hamamatsu, Shizuoka, Japan). Laser power measured at the focal plane under the objective was between 8 and 34 mW. […]
To test whether NTSR1 receptors are indeed being bound by endogenous ligand in acute slice, we compared NTSR1 distribution in slices treated with the NTSR1 specific antagonist, SR48692 ([Gully et al., 1993]). […] NTSR1-Venus puncta were then quantified in the acquired image projections by counting vesicle-sized particles (Figure 5E). […]

The target in experiment [3] is NTSR1-RlucII (mouse) (UniProt O88319).
NTSR1-RlucII (mouse), sequence (O88319 whole entry): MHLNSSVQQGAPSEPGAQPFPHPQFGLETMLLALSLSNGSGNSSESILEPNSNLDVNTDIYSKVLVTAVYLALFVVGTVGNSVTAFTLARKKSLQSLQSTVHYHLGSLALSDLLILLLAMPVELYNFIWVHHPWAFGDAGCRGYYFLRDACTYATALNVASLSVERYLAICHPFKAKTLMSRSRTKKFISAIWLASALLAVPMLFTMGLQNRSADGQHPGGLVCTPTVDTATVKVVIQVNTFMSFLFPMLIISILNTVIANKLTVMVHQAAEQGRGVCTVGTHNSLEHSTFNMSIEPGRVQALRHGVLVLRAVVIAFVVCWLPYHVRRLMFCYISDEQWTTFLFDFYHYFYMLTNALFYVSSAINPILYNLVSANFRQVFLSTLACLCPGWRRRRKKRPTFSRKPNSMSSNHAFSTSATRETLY
Experiment [4] has as its target NTSR1-Venus (knock-in receptor of Ntsr1 Venus/Venus mice) (mouse) (UniProt O88319).
Experiment [5] concerns the target NTSR1-Venus (transfected construct) (mouse) (UniProt O88319).
The target in experiment [6] is NTSR1-RlucII (mouse) (UniProt O88319). The source holds these as a separate data set.
The target of experiment [7] is mouse NTSR1 (untagged) (mouse) (UniProt O88319).
mouse NTSR1 (untagged) (mouse), sequence (O88319 whole entry): as above

Counter-ions that a name gives are not always drawn.

NTSR1-Venus (knock-in receptor of Ntsr1 Venus/Venus mice) (mouse), sequence (O88319 whole entry): as above
NTSR1-Venus (transfected construct) (mouse), sequence (O88319 whole entry): as above
T1 sequence (O88319 whole entry): as above

Turning to `C[C@H](CCC(=O)O)C[C@H](C)C[C@H](C)C(=O)/C=C(\O)[C@H](C)C[C@H](C)C/C=C/[C@@H](C)[C@@H](O)[C@@H](C)[C@@H](O)C[C@@H]1CC[C@@](C)([C@H]2CC[C@@](C)([C@@H](C)O)O2)O1` [Ionomycin, Ionomycin calcium salt from Streptomyces conglobatus], the calcium increase in experiment [1] and in experiment [2] was 3 fold throughout.
As to `COc1cccc(OC)c1-c1cc(C(=O)NC2(C(=O)O)C3CC4CC(C3)CC2C4)nn1-c1ccnc2cc(Cl)ccc12` (stereo not drawn) [SR48692], the “NTSR1-Venus puncta across imaging time” value at NTSR1-Venus is “trend of decreasing puncta across imaging time”.
On to “Neurotensin (from UniProt P30990 151-163) (peptide)”, for which the NTSR1-RlucII internalization in HEK293 cells (decrease in ebBRET between NTSR1-RlucII and rGFP-CAAX), concentration-response; potency as told in the text with NTSR1-RlucII (mouse) [3] was determined as 5.89 nM. In experiment [4], the NTSR1-Venus endocytosis in primary hippocampal neurons (ratio of Venus and EEA1 positive to total EEA1 positive endosomes), dose-response after 5 min of agonist; EC50 was 4.03 nM; the NTSR1-Venus redistribution to EEA1 endosomes in primary hippocampal neurons, 1 uM neurotensin, time course 0-60 min; % EEA1 vesicles with Venus (value at 5 min) came out at 98.5%. In addition, the Gq activation in HEK293 cells (ebBRET between p63RhoGEF-RlucII and rGFP-CAAX, EMTA), concentration-response; potency LogEC50 in experiment [5] was -8.78 LogEC50 (M). For the same compound, in the experiment with NTSR1-RlucII (mouse) [6], the NTSR1-RlucII internalization in HEK293 cells (decrease in ebBRET between NTSR1-RlucII and rGFP-CAAX), concentration-response; potency LogEC50 was -8.07 LogEC50 (M). Also, in experiment [7], the Gq activation in HEK293 cells (ebBRET between p63RhoGEF-RlucII and rGFP-CAAX, EMTA), concentration-response; potency LogEC50 is -8.97 LogEC50 (M).

Source of the values: paper PMC9745132, “Visualization of real-time receptor endocytosis in dopamine neurons enabled by NTSR1-Venus knock-in mice” (Frontiers in Cellular Neuroscience, 2022).
